Molecular target: erb-b2 receptor tyrosine kinase 2 (HER2) on target cells (Homo sapiens (Human), UniProt P04626 23-1255)
Experiment: cell-based or functional assay

B1: HER2 CAR CT1094 (receptor)
chain: QVQLQQSGPELKKPGETVKISCKASGYPFTNYGMNWVKQAPGQGLKWMGWINTSTGESTFADDFKGRFDFSLETSANTAYLQINNLKSEDSATYFCARWEVYHGYVPYWGQGTTVTVSSGGGGSGGGGSGGGGSDIQLTQSHKFLSTSVGDRVSITCKASQDVYNAVAWYQQKPGQSPKLLIYSASSRYTGVPSRFTGSGSGPDFTFTISSVQAEDLAVYFCQQHFRTPFTFGSGTKLEIKAEPKSPDKTHTCPPCPKDPKFWVLVVVGGVLACYSLLVTVAFIIFWVRSKRSRLLHSDYMNMTPRRPGPTRKHYQPYAPPRDFAAYRSRVKFSRSADAPAYKQGQNQLYNELNLGRREEYDVLDKRRGRDPEMGGKPRRKNPQEGLYNELQKDKMAEAYSEIGMKGERRRGKGHDGLYQGLSTATKDTYDALHMQALPPR
EC50 (molecules/cell), Jurkat NFAT luciferase activation, mRNA titration in HeLa; construct CT1094 (CAR only): 6500 molecules/cell
EC50 (molecules/cell), Jurkat NFAT luciferase activation, mRNA titration in HeLa; construct CT1113 (CT1094 + Murine blocker): 4900 molecules/cell
EC50 (molecules/cell), Jurkat NFAT luciferase activation, mRNA titration in HeLa; construct CT1121 (CT1094 + Human-1 blocker): 4600 molecules/cell
EC50 (molecules/cell), Jurkat NFAT luciferase activation, mRNA titration in HeLa; construct CT1187 (CT1094 + Human-2 blocker): 4500 molecules/cell

Source: patent US20220339194A1 (A2 BIOTHERAPEUTICS, published 2022)
